In patent publication US20070128627A1 (US Dept. of Health and Human Services, published 2007):

Assays:
GAL/STAMP(N834) = molecular target: T1, GAL/STAMP(N834) (human); assay: mammalian two-hybrid ±1 µM Dex (FIG. 6B)
T1 construct: domain: GAL-DBD; Mammalian two-hybrid construct; also called GAL/N834

GAL/STAMP(834C) = molecular target: T2, GAL/STAMP(834C) (human, UniProt P04386 1-147 (Saccharomyces cerevisiae entry)); assay: mammalian two-hybrid (data not shown)
T2 construct: domain: GAL-DBD; Mammalian two-hybrid construct; also called GAL fused to STAMP834C

GAL/STAMP(623-834) = molecular target: T3, GAL/STAMP(623-834) (human); assay: mammalian two-hybrid in CV-1 cells
T3 construct: domain: GAL-DBD; Expressed in CV-1 cells for the mammalian two-hybrid assay; also called Gal/6-6CL1

[1] = molecular target: transcription intermediary factor-2 (TIF2), full length (human, UniProt Q15596 1-1464); assay: cell-based or functional assay
[2] = molecular target: T4, STAMP C-terminal fragment (834C), in vitro translated (human, UniProt Q6EMB2 838-1281, [35S]methionine labeled); assay: GST pulldown, autoradiography (FIG. 7A)
T4 sequence: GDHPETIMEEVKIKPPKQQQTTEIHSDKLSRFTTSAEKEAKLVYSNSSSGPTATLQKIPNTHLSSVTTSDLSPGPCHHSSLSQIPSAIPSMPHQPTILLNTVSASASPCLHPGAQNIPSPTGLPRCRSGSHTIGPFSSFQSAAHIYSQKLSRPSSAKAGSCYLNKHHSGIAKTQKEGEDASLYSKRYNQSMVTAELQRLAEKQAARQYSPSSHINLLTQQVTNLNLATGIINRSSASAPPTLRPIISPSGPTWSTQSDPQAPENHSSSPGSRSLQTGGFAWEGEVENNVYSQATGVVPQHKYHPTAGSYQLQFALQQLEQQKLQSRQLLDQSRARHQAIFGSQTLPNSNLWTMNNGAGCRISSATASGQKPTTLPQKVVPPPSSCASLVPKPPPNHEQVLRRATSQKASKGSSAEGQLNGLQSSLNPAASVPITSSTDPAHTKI
Method: (§1) The mixture was centrifuged (12,000×g), the supernatant was discarded, and the pellet was washed with phosphate-buffered saline (3×1 ml). Each 20-μl sample of immobilized GST or GST-chimera was then incubated overnight with 10 μl of ³⁵S-labeled in vitro translation product. The matrix was washed with phosphate-buffered saline (4×1 ml). The immobilized proteins were removed from the beads by heating at 90° C. for 5 min in 20 μl of 2×SDS loading buffer. The proteins were separated on 8-10% SDS-PAGE gels and detected by radio-autoradiography.

[3] = molecular target: T5, STAMP amino terminal fragment (N623), in vitro translated (human, UniProt Q6EMB2 5-627, [35S]methionine labeled); assay: GST pulldown, autoradiography (FIG. 7A)
T5 sequence: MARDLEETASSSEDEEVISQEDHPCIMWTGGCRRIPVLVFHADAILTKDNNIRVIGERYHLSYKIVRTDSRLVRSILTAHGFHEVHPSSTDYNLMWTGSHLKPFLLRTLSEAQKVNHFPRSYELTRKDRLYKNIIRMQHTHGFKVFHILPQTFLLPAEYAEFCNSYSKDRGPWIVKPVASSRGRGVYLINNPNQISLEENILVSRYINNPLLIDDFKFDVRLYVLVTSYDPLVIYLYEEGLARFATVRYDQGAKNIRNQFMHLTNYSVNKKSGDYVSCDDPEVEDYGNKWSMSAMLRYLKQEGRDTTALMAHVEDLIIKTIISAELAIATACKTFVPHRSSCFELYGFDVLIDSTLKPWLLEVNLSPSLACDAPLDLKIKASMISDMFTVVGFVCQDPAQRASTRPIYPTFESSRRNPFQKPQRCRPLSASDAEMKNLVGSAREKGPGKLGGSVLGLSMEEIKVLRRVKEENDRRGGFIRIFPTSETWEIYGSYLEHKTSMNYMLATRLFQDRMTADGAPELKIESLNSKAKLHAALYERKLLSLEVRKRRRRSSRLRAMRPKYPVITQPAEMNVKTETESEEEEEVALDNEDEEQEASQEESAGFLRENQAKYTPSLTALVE
Method: as §1

B1: VP16/GR (receptor)
chain: MDSKESLAPPGRDEVPGSLLGQGRGSVMDFYKSLRGGATVKVSASSPSVAAASQADSKQQRILLDFSKGSTSNVQQRQQQQQQQQQQQQQQQQQQQPDLSKAVSLSMGLYMGETETKVMGNDLGYPQQGQLGLSSGETDFRLLEESIANLNRSTSVPENPKSSTSATGCATPTEKEFPKTHSDASSEQQNRKSQTGTNGGSVKLYPTDQSTFDLLKDLEFSAGSPSKDTNESPWRSDLLIDENLLSPLAGEDDPFLLEGNTNEDCKPLILPDTKPKIKDTGDTILSSPSSVALPQVKTEKDDFIELCTPGVIKQEKLGPVYCQASFSGTNIIGNKMSAISVHGVSTSGGQMYHYDMNTASLSQQQDQKPVFNVIPPIPVGSENWNRCQGSGEDSLTSLGALNFPGRSVFSNGYSSPGMRPDVSSPPSSSSAATGPPPKLCLVCSDEASGCHYGVLTCGSCKVFFKRAVEGQHNYLCAGRNDCIIDKIRRKNCPACRYRKCLQAGMNLEARKTKKKIKGIQQATAGVSQDTSENPNKTIVPAALPQLTPTLVSLLEVIEPEVLYAGYDSSVPDSAWRIMTTLNMLGGRQVIAAVKWAKAILGLRNLHLDDQMTLLQYSWMFLMAFALGWRSYRQSSGNLLCFAPDLIINEQRMSLPCMYDQCKHMLFVSSELQRLQVSYEEYLCMKTLLLLSSVPKEGLKSQELFDEIRMTYIKELGKAIVKREGNSSQNWQRFYQLTKLLDSMHEVVENLLTYCFQTFLDKTMSIEFPEMLAEIITNQIPKYSNGNIKKLLFHQK
notes: Assayed with and without 1 µM Dex
binding result (GAL/STAMP(N834)): no binding

B2: GR C-terminal half (407C) (receptor, UniProt P06536 407-795, looked up, not shown: large carriers)
chain: SVFSNGYSSPGMRPDVSSPPSSSSAATGPPPKLCLVCSDEASGCHYGVLTCGSCKVFFKRAVEGQHNYLCAGRNDCIIDKIRRKNCPACRYRKCLQAGMNLEARKTKKKIKGIQQATAGVSQDTSENPNKTIVPAALPQLTPTLVSLLEVIEPEVLYAGYDSSVPDSAWRIMTTLNMLGGRQVIAAVKWAKAILGLRNLHLDDQMTLLQYSWMFLMAFALGWRSYRQSSGNLLCFAPDLIINEQRMSLPCMYDQCKHMLFVSSELQRLQVSYEEYLCMKTLLLLSSVPKEGLKSQELFDEIRMTYIKELGKAIVKREGNSSQNWQRFYQLTKLLDSMHEVVENLLTYCFQTFLDKTMSIEFPEMLAEIITNQIPKYSNGNIKKLLFHQK
notes: also called GR407C
binding result (GAL/STAMP(834C)): no binding

B3: VP16/TIF2(1140C) (other)
chain: QAQMAQGSYSPMQDPNFHTMGQRPSYATLRMQPRPGLRPTGLVQNQPNQLRLQLQHRLQAQQNRQPLMNQISNVSNVNLTLRPGVPTQAPINAQMLAQRQREILNQHLRQRQMHQQQQVQQRTLMMRGQGLNMTPSMVAPSGMPATMSNPRIPQANAQQFPFPPNYGISQQPDPGFTGATTPQSPLMSPRMAHTQSPMMQQSQANPAYQAPSDINGWAQGNMGGNSMFSQQSPPHFGQQANTSMYSNNMNINVSMATNTGGMSSMNQMTGQISMTSVTSVPTSGLSSMGPEQVNDPALRGGNLFPNQLPGMDMIKQEGDTTRKYC
binding result (GAL/STAMP(623-834)): no binding

B4: GR N-terminal half (N523) (receptor, UniProt P06536 1-523, looked up, not shown: large carriers)
chain: MDSKESLAPPGRDEVPGSLLGQGRGSVMDFYKSLRGGATVKVSASSPSVAAASQADSKQQRILLDFSKGSTSNVQQRQQQQQQQQQQQQQQQQQQQPDLSKAVSLSMGLYMGETETKVMGNDLGYPQQGQLGLSSGETDFRLLEESIANLNRSTSVPENPKSSTSATGCATPTEKEFPKTHSDASSEQQNRKSQTGTNGGSVKLYPTDQSTFDLLKDLEFSAGSPSKDTNESPWRSDLLIDENLLSPLAGEDDPFLLEGNTNEDCKPLILPDTKPKIKDTGDTILSSPSSVALPQVKTEKDDFIELCTPGVIKQEKLGPVYCQASFSGTNIIGNKMSAISVHGVSTSGGQMYHYDMNTASLSQQQDQKPVFNVIPPIPVGSENWNRCQGSGEDSLTSLGALNFPGRSVFSNGYSSPGMRPDVSSPPSSSSAATGPPPKLCLVCSDEASGCHYGVLTCGSCKVFFKRAVEGQHNYLCAGRNDCIIDKIRRKNCPACRYRKCLQAGMNLEARKTKKKIKGIQQAT
notes: domain: N-terminal half (N523)
binding result (GAL/STAMP(834C)): no binding

B5: full length STAMP (SRC-1 and TIF2 Associated Modulatory Protein) (other)
chain: MARDLEETASSSEDEEVISQEDHPCIMWTGGCRRIPVLVFHADAILTKDNNIRVIGERYHLSYKIVRTDSRLVRSILTAHGFHEVHPSSTDYNLMWTGSHLKPFLLRTLSEAQKVNHFPRSYELTRKDRLYKNIIRMQHTHGFKVFHILPQTFLLPAEYAEFCNSYSKDRGPWIVKPVASSRGRGVYLINNPNQISLEENILVSRYINNPLLIDDFKFDVRLYVLVTSYDPLVIYLYEEGLARFATVRYDQGAKNIRNQFMHLTNYSVNKKSGDYVSCDDPEVEDYGNKWSMSAMLRYLKQEGRDTTALMAHVEDLIIKTIISAELAIATACKTFVPHRSSCFELYGFDVLIDSTLKPWLLEVNLSPSLACDAPLDLKIKASMISDMFTVVGFVCQDPAQRASTRPIYPTFESSRRNPFQKPQRCRPLSASDAEMKNLVGSAREKGPGKLGGSVLGLSMEEIKVLRRVKEENDRRGGFIRIFPTSETWEIYGSYLEHKTSMNYMLATRLFQDRMTADGAPELKIESLNSKAKLHAALYERKLLSLEVRKRRRRSSRLRAMRPKYPVITQPAEMNVKTETESEEEEEVALDNEDEEQEASQEESAGFLRENQAKYTPSLTALVENTPKENSMKVREWNNKGGHCCKLETQELEPKFNLMQILQDNGNLSKMQARIAFSAYLQHVQIRLMKDSGGQTFSASWAAKEDEQMELVVRFLKRASNNLQHSLRMVLPSRRLALLERRRILAHQLGDFIIVYNKETEQMAEKKSKKKVEEEEEDGVNMENFQEFIRQASEAELEEVLTFYTQKNKSASVFLGTHSKISKNNNNYSDSGAKGDHPETIMEEVKIKPPKQQQTTEIHSDKLSRFTTSAEKEAKLVYSNSSSGPTATLQKIPNTHLSSVTTSDLSPGPCHHSSLSQIPSAIPSMPHQPTILLNTVSASASPCLHPGAQNIPSPTGLPRCRSGSHTIGPFSSFQSAAHIYSQKLSRPSSAKAGSCYLNKHHSGIAKTQKEGEDASLYSKRYNQSMVTAELQRLAEKQAARQYSPSSHINLLTQQVTNLNLATGIINRSSASAPPTLRPIISPSGPTWSTQSDPQAPENHSSSPGSRSLQTGGFAWEGEVENNVYSQATGVVPQHKYHPTAGSYQLQFALQQLEQQKLQSRQLLDQSRARHQAIFGSQTLPNSNLWTMNNGAGCRISSATASGQKPTTLPQKVVPPPSSCASLVPKPPPNHEQVLRRATSQKASKGSSAEGQLNGLQSSLNPAASVPITSSTDPAHTKI
fold repression by Dex of the PMA-induced AP-1/Luc reporter in U2OS.rGR cells (STAMP added, no TIF2 added) [1]: 16 fold
fold repression by Dex of the PMA-induced AP-1/Luc reporter in U2OS.rGR cells (STAMP plus TIF2 added) [1]: ~31 fold

B6: GST/TIF2.4 (other)
chain: ERADGQSRLHDSKGQTKLLQLLTTKSDQMEPSPLASSLSDTNKDSTGSLPGSGSTHGTSLKEKHKILHRLLQDSSSPVDLAKLTAEATGKDLSQESSSTAPGSEVTIKQEPVSPKKKENALLRYLLDKDDTKDIGLPEITPKLERLDSKTDPASNTKLIAMKTEKEEMSFEPGDQPGSELDNLEEILDDLQNSQLPQLFPDTRPGAPAGSVDKQAIINDLMQLTAENSPVTPVGAQKTALRISQSTFNNPRPGQLGRLLPNQNLPLDITLQSPTGAGPFPPIRNSSPYSVIPQPGMMGNQGMIGNQGNLGNSSTGMIGNSASRPTMPSGEWAPQSSAVRVTCAATTSAMNRPVQGGMIRNPAASIPMRPSSQPGQRQTLQSQVMNIG
notes: Bacterially expressed, immobilized on glutathione-Sepharose beads; The text gives no limits for TIF2.4, so the whole TIF2 entry is named; not shown: glutathione S-transferase (GST) of a pGEX plasmid
binding result [2]: no binding
binding result [3]: no binding
